Measurements as given in patent publication US20200095598A1 (COMMONWEALTH SCIENTIFIC AND INDUSTRIAL RESEARCH ORGANISATION, published 2020).
Read-outs that look alike come from different tables or passages of the source.

Tests used:
[1] = system: pFAγ::NifD::HA fusion polypeptide
[2] = biological target: pFAγ::NifD::FLAG fusion polypeptide (Klebsiella pneumoniae (NifD part); Arabidopsis thaliana (pFAγ MTP)); assay: cell-based or functional assay
[3] = biological target: T1, FAγ^51::NifD::HA fusion polypeptide (constructs SN6, SN7, SN8)
T1 chain: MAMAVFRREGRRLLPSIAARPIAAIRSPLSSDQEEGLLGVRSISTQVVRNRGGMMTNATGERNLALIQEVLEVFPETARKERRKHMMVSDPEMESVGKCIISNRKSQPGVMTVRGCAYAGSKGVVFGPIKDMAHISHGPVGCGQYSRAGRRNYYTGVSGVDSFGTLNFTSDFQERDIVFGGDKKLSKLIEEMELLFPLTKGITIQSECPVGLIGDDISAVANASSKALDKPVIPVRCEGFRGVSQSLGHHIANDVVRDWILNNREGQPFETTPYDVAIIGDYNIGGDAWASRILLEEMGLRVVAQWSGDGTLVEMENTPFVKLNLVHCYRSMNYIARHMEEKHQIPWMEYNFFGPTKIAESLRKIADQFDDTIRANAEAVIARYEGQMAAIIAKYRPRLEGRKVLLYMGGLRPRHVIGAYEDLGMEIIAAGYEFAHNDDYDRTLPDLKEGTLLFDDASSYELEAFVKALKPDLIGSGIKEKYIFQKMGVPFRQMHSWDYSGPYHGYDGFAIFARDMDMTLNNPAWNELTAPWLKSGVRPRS

[4] = biological target: T2, pFAγ::NifD::HA fusion polypeptide
T2 chain: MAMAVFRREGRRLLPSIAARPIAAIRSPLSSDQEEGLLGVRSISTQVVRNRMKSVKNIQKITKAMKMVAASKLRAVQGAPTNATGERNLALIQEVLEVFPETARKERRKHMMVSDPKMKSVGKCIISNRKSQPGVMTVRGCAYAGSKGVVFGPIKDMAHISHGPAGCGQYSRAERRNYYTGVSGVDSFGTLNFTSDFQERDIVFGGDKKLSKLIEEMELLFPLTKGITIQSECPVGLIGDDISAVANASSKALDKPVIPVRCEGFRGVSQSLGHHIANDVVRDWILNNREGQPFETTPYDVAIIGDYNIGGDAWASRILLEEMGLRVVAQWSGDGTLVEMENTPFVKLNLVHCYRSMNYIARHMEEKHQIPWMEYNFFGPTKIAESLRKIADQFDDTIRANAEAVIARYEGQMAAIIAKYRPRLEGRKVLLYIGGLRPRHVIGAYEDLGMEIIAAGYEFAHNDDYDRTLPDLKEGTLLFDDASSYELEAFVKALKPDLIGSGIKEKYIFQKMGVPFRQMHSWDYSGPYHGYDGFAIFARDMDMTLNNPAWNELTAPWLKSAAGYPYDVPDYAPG

[5] = biological target: NifD polypeptide encoded by pMIT2.1 (wild-type nitrogenase gene cluster) in E. coli, P00466
[6] = biological target: the molecule itself; assay: SDS-PAGE and Western blot of N. benthamiana leaf extracts; self-association (band at about double the molecular weight)

Sequence of NifD polypeptide encoded by pMIT2.1 (wild-type nitrogenase gene cluster) in E. coli, P00466 (P00466 whole entry, looked up): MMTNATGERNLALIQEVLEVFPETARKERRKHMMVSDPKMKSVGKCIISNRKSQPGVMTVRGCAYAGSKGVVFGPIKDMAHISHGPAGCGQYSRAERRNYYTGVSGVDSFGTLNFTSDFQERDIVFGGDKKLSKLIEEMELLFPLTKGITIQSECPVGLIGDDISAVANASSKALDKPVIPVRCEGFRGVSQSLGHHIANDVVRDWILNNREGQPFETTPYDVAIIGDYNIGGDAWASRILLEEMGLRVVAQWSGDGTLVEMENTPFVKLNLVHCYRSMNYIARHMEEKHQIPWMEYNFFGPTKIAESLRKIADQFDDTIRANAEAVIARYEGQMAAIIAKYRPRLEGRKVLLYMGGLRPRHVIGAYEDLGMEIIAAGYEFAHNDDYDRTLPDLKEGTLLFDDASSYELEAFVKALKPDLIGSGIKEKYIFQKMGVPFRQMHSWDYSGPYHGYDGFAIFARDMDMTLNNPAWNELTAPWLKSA

pFAγ::NifH::HA fusion polypeptide
extent of MTP processing of NifD::HA on co-expression (Western blot) [1]: the extent of processing of the MTP sequence fused to NifD::HA was increased in the presence of the NifK and NifH polypeptides

pFAγ::NifK fusion polypeptide (pRA25), lacking any C-terminal extension (enzyme)
level of NifD::FLAG accumulation (band intensity normalised to a background band, Western blot anti-FLAG), co-expression with pRA25 against pRA11 (NifK with C-terminal extension) [2]: 50%

B1: pFAγ::NifK fusion polypeptide (pRA25), lacking any C-terminal extension (protein)
chain: MAMAVFRREGRRLLPSIAARPIAAIRSPLSSDQEEGLLGVRSISTQVVRNRMKSVKNIQKITKAMKMVAASKLRAVQGAPSQTIDKINSCYPLFEQDEYQELFRNKRQLEEAHDAQRVQEVFAWTTTAEYEALNFRREALTVDPAKACQPLGAVLCSLGFANTLPYVHGSQGCVAYFRTYFNRHFKEPIACVSDSMTEDAAVFGGNNNMNLGLQNASALYKPEIIAVSTTCMAEVIGDDLQAFIANAKKDGFVDSSIAVPHAHTPSFIGSHVTGWDNMFEGFAKTFTADYQGQPGKLPKLNLVTGFETYLGNFRVLKRMMEQMAVPCSLLSDPSEVLDTPADGHYRMYSGGTTQQEMKEAPDAIDTLLLQPWQLLKSKKVVQEMWNQPATEVAIPLGLAATDELLMTVSQLSGKPIADALTLERGRLVDMMLDSHTWLHGKKFGLYGDPDFVMGLTRFLLELGCEPTVILSHNANKRWQKAMNKMLDASPYGRDSEVFINCDLWHFRSLMFTRQPDFMIGNSYGKFIQRDTLAKGKAFEVPLIRLGFPLFDRHHLHRQTTWGYEGAMNIVTTLVNAVLEKLDSDTSQLGKTDYSFDLVR
NifD::HA abundance and ratio of processed to unprocessed NifD on co-infiltration (SDS-PAGE, Western blot anti-HA) [3]: the addition of pRA25 in each case greatly enhanced NifD abundance, particularly for the combination of SN7 and pRA25. Most importantly, the ratio of processed to unprocessed NifD was enhanced by the addition of pRA25. | amount of the approximately 48 kDa NifD::HA degradation product on co-expression (Western blot anti-HA) [3]: the amount of this product was also enhanced by co-expression of pRA25 (NifK) | extent of MTP processing of NifD::HA on co-expression (Western blot) [4]: the extent of processing of the MTP sequence fused to NifD::HA was increased in the presence of the NifK and NifH polypeptides

B2: modified NifK polypeptide having a 9 amino acid C-terminal extension (YPYDVPDYA), encoded by modified pMIT2.1 (protein)
chain: MSQTIDKINSCYPLFEQDEYQELFRNKRQLEEAHDAQRVQEVFAWTTTAEYEALNFRREALTVDPAKACQPLGAVLCSLGFANTLPYVHGSQGCVAYFRTYFNRHFKEPIACVSDSMTEDAAVFGGNNNMNLGLQNASALYKPEIIAVSTTCMAEVIGDDLQAFIANAKKDGFVDSSIAVPHAHTPSFIGSHVTGWDNMFEGFAKTFTADYQGQPGKLPKLNLVTGFETYLGNFRVLKRMMEQMAVPCSLLSDPSEVLDTPADGHYRMYSGGTTQQEMKEAPDAIDTLLLQPWQLLKSKKVVQEMWNQPATEVAIPLGLAATDELLMTVSQLSGKPIADALTLERGRLVDMMLDSHTWLHGKKFGLYGDPDFVMGLTRFLLELGCEPTVILSHNANKRWQKAMNKMLDASPYGRDSEVFINCDLWHFRSLMFTRQPDFMIGNSYGKFIQRDTLAKGKAFEVPLIRLGFPLFDRHHLHRQTTWGYEGAMNIVTTLVNAVLEKLDSDTSQLGKTDYSFDLVRYPYDVPDYA
ethylene production in acetylene reduction assay (E. coli DH5α, modified pMIT2.1 + pN249) [5]: the 9-amino acid C-terminal extension added to NifK completely abolished ethylene production

B3: pFAγ::NifS::HA fusion polypeptide (enzyme)
chain: ISTQVVRNRMKSVKNIQKITKAMKMVAASKLRAVQGAPKQVYLDNNATTRLDPMVLEAMMPFLTDFYGNPSSIHDFGIPAQAALERAHQQAAALLGAEYPSEIIFTSCATEATATAIASAIALLPERREIITSVVEHPATLAACEHMEREGYRIHRIAVDGEGALDMAQFRAALSPRVALVSVMWANNETGVLFPIGEMAELAHEQGALFHCDAVQVVGKIPIAVGQTRIDMLSCSAHKFHGPKGVGCLYLRRGTRFRPLLRGGHQEYGRRAGTENICGIVGMGAACELANIHLPGMTHIGQLRNRLEHRLLASVPSVMVMGGGQPAVPGTVNLAFEFIEGEAILLLLNQAGIAASSGSACTSGSLEPSHVMRAMNIPYTAAHGTIRFSLSRYTREKEIDYVVATLPPIIDRLRALSPYWQNGKPRPADAVFTPVYGAGGGGGYPYDVPDYAPG
notes: Expressed in N. benthamiana; also called pRA16
binding result [6]: binds

B4: pFAγ::NifY::HA fusion polypeptide (other)
chain: ISTQVVRNRMKSVKNIQKITKAMKMVAASKLRAVQGAPSDNDTLFWRMLALFQSLPDLQPAQIVDWLAQESGETLTPERLATLTQPQLAASFPSATAVMSPARWSRVMASLQGALPAHLRIVRPAQRTPQLLAAFCSQDGLVINGHFGQGRLFFIYAFDEQGGWLYDLRRYPSAPHQQEANEVRARLIEDCQLLFCQEIGGPAAARPIRHRIHPMKAQPGTTIQAQCEAINTLLAGRLPPWLAKRLNRDNPLEERVFAGGGGGYPYDVPDYAPG
notes: Expressed in N. benthamiana; also called pRA12
binding result [6]: binds

B5: pFAγ::NifB::HA fusion polypeptide (enzyme)
chain: ISTQVVRNRMKSVKNIQKITKAMKMVAASKLRAVQGAPTSCSSFSGGKACRPADDSALTPLVADKAAAHPCYSRHGHHRFARMHLPVAPACNLQCNYCNRKFDCSNESRPGVSSTLLTPEQAVVKVRQVAQAIPQLSVVGIAGPGDPLANIARTFRTLELIREQLPDLKLCLSTNGLVLPDAVDRLLDVGVDHVTVTINTLDAEIAAQIYAWLWLDGERYSGREAGEILIARQLEGVRRLTAKGVLVKINSVLIPGINDSGMAGVSRALRASGAFIHNIMPLIARPEHGTVFGLNGQPEPDAETLAATRSRCGEVMPQMTHCHQCRADAIGMLGEDRSQQFTQLPAPESLPAWLPILHQRAQLHASIATRGESEADDACLVAVASSRGDVIDCHFGHADRFYIYSLSAAGMVLVNERFTPKYCQGRDDCEPQDNAARFAAILELLADVKAVFCVRIGHTPWQQLEQEGIEPCVDGAWRPVSEVLPAWWQQRRGSWPAALPHKGVAAGGGGGYPYDVPDYAPG
notes: Expressed in N. benthamiana; also called pRA03
binding result [6]: binds
